Target: HSP90 (heat shock protein 90) (human (endogenous in the human Huh7.5-derived JFH-1 cell line)) (UniProt P07900)
Experiment: cell-based or functional assay

**Q.** How did the mean 50% inhibitory concentration (IC50) of HIV-1 viral particle production in MT-4 cells, p24 ELISA turn out when “PEP1 peptide (hTERT-derived 16mer peptide, 611-…-626)” was run?
**A.** The mean 50% inhibitory concentration (IC50) of HIV-1 viral particle production in MT-4 cells, p24 ELISA was 850 nM.

From patent US20190032032A1
